Measured values reported in paper PMC5487423 (2017).

What was measured:
Test in all cases: BLI
CCL8 = target: T1, CCL8 (human, UniProt P80075 24-99)
T1 chain: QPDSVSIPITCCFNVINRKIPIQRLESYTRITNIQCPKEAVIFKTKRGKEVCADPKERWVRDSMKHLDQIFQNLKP

CCL1 = target: T2, CCL1 (human, UniProt P22362 24-96)
T2 chain: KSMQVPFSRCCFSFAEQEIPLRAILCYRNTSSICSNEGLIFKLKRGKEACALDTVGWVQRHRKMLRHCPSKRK

CCL4L1_HUMAN = target: T3, CCL4L1_HUMAN (Homo sapiens)
T3 chain: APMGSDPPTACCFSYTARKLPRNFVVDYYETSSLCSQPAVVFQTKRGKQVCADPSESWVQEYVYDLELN

CCL24_HUMAN = target: T4, CCL24_HUMAN (Homo sapiens)
T4 chain: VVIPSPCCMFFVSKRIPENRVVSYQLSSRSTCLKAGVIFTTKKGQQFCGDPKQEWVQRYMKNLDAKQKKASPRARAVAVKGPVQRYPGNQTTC

CCL5 = target: T5, CCL5 (human, UniProt P13501 24-91)
T5 chain: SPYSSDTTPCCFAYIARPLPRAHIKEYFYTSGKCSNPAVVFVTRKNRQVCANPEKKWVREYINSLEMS

B1: P1183_AMBTR, purified, C-terminal StrepII-8xHis tag (natural protein)
chain: ETGEAPKDDFEYDGGCPFVVLDNGTHVKPAGCSHLCNGAPETLDNIECYNVTEEVAKRMTPGIPYACWLGWCSKGECKRDNRTEVCYRGSEEE
In the case of B1, the Kd (CCL8) is reported as 1100 nM.

B2: P974_AMBCA, purified, C-terminal StrepII-8xHis tag (natural protein)
chain: ETGENTQQEEQDYDYGTDTCPFPVLANKTNKAKFVGCHQKCNGGDQKLTDGTACYVVERKVWDRMTPMLWYECPLGECKNGVCEDLRKKEDCRKGNGEEK
B2 was tested, and the Kd (CCL1) was 71 nM and the Kd (CCL8) was 2.6 nM.

B3: P985_AMBPA, purified, C-terminal StrepII-8xHis tag (natural protein)
chain: ETGDEESEELGASTDVDYEELDANCTCPAPALTSTRNNKHYPLGCIYNCSSYNCTIPDGTPCYVLTLGEVKEHLQIGSTVPNCTCGLCRNGTCVSNGTVEECFAVEEIEET
With B3 the Kd (CCL4L1_HUMAN) was 21 nM, the Kd (CCL24_HUMAN) was 41 nM and the Kd (CCL1) was 8.3 nM.

B4: P467_RHIPU, purified, C-terminal StrepII-8xHis tag (natural protein)
chain: ETGAEKSLDSDSSGEDYELWTQGCPFLVAENRTGFGTTVSCQHNCNGAIEKVPEGEPCYTIGEDGLGRMKLNLPYNCSLGECSGGVCVPNGRSDVCFKRTWEENNKAMA
B4 was tested, and the Kd (CCL4L1_HUMAN) was 4.7 nM, the Kd (CCL5) was 7.7 nM and the Kd (CCL1) was 53 nM.

B5: P546_AMBCA, purified, C-terminal StrepII-8xHis tag (natural protein)
chain: ETGENTQQEEEDYDYGTDTCPFPVLANKTNKAKFVGCHQKCNGGDQKLTDGTACYVVERKVWDRMTPMLWYSCPLGECKNGVCEDLRKKEECRKGNGEEK
Binder B5 has a Kd (CCL4L1_HUMAN) of 8.9 nM and a Kd (CCL8) of 1.3 nM.

B6: P983_AMBCA, purified, C-terminal StrepII-8xHis tag (natural protein)
chain: ETGEDTGTEDDFDYGNTGCPFPVLGNYKSNMTKPVGCKNKCGSGYEVLNDTTPCYVIDQKVFNNMVPLRQYSKCPLGFCENGECKPNDQAEDCYKGREEQKGGGGGSGGGGSGGASAWSHPQFEKLEHHHHHHHH
B6 showed a Kd (CCL4L1_HUMAN) of 2.9 nM.
